# Source: PMC5780496
# Molecular target: HACE1 (UniProt Q8IYU2)
# Test: co-IP of differently tagged HACE1
# Details: reference: HACE1 WT with PAK1(K141A); sites S385
# Sequence of HACE1 (Q8IYU2 whole entry, stated change not applied): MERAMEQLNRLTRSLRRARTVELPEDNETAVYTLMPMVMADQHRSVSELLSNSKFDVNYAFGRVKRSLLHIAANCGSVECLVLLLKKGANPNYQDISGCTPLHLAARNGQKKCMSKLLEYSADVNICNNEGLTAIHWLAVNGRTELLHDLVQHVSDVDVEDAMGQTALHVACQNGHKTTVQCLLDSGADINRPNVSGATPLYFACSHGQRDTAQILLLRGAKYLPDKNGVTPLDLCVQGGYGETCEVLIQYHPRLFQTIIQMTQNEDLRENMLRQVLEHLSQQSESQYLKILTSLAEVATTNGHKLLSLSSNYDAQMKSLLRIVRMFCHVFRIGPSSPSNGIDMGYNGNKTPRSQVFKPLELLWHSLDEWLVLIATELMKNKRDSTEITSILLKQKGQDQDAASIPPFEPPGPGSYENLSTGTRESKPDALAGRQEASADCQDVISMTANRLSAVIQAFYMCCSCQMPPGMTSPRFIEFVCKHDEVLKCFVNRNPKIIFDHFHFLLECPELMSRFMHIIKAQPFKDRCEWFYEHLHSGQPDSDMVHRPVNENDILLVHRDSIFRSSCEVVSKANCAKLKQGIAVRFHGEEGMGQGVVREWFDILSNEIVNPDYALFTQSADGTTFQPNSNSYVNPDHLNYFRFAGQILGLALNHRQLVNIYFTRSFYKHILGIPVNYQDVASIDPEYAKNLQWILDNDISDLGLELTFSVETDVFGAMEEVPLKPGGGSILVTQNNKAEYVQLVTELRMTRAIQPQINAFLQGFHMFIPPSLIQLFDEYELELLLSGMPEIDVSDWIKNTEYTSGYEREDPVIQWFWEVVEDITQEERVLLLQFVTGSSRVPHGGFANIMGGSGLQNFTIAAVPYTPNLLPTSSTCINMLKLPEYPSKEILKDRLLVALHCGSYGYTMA
substance,measurement,value
HACE1 (from UniProt Q8IYU2) HACE1 S385A with PAK1(K141A),binding against the reference,weaker
